Experiment [1] deals with T1, Recombinant human PDGF-BB (human, UniProt P01127 82-190).
T1 construct: For SPR it was chemically biotinylated on primary amines and captured on neutravidin; also called PDGF-BB (human); Reliatech 200-055
As to the kind of experiment: SPR (ProteOn), biotinylated PDGF-BB on neutravidin chip, DARPin injected; Kd from on- and off-rates. As to the method:
(§1) Biotinylated PDGF-BB molecules from human and mouse were immobilized in a flow cell through binding to coated […] and the interaction with various selected DARPins was analyzed.
(§2) SPR was measured using a ProteOn instrument (BioRad) and measurement was performed according standard procedures known to the person skilled in the art. The running buffer was PBS, pH 7.4, containing 0.005% Tween 20®. Neutravidin was covalently immobilized on a GLC chip (BioRad) to a level of about 8000 resonance units (RU). Immobilization of PDGF-BB on the neutravidin coated chip was then performed. The interaction of DARPin PDGF-BB was then measured by injecting 100 μl running buffer (PBS containing 0.005% Tween®) containing serial dilutions of DARPins of concentration of […] (on-rate measurement), followed by a running buffer flow for between 10 minutes and up to 3 hours at a constant flow rate of 30 μl/min (off-rate measurement). The signals (i.e. resonance unit (RU) values) of an uncoated reference cell and a reference injection (i.e. injection of running buffer only) were subtracted from the RU traces obtained after injection of […] (double-referencing). From the SRP traces obtained from the on-rate and off-rate measurements the on- and off-rate of the corresponding DARPin PDGF-BB interaction can be determined.
(§3) Dissociation constants (Kd) were calculated from the estimated on- and off-rates using standard procedures known to the person skilled in the art.

The target in experiment [2] is T1, Recombinant human PDGF-BB. The experiment is described as follows: receptor competition ELISA: DARPin preincubated with PDGF-BB, free PDGF-BB captured on coated PDGFRbeta/Fc; mean IC50. On the procedure: The potency of PEGylated anti-PDGF-BB DARPins to inhibit the binding of human PDGF-BB to its receptor PDGFRbeta was determined in a in a receptor competition ELISA (based on PDGF-BB Quantikine, R&D Systems). PDGFRbeta/Fc chimera has been precoated on a microplate. The DARPins were preincubated in assay diluent from the PDGF-BB Quantikine kit (R&D Systems) with a defined amount of PDGF-BB and incubated at room temperature for 2 hours with shaking at 750 rpm. These preincubation mixtures were then transferred into the precoated wells and any PDGF-BB that is not blocked by the DARPins was bound by the immobilized receptor. After washing away any unbound substances, a horse radish peroxidase-linked polyclonal antibody specific for PDGF-BB was added to the wells. Following a wash to remove any unbound antibody-enzyme reagent, a substrate solution was added to the wells and color was developing in proportion to the amount of PDGF-BB bound. The color development was stopped and the intensity of the color was measured at […]. Example titration curves are given for a set of DARPins in FIG. 2. IC₅₀ values were calculated from such titration curves obtained as described above using Graph Pad Prism software and standard procedures known to the person skilled in the art.
(An ELISA detects its analyte on a solid surface through an enzyme-linked reagent.)

For experiment [3], the target named is T2, Recombinant murine PDGF-BB (mouse, UniProt P31240 82-190, limits assumed).
T2 construct: For SPR chemically biotinylated on primary amines and captured on neutravidin; also called mouse PDGF-BB; PDGF-BB (mouse)
The experiment is described as follows: SPR (ProteOn), biotinylated PDGF-BB on neutravidin chip, DARPin injected; Kd from on- and off-rates. As to the method: as §1, §2, §3

T1 sequence (P01127 82-190 limits assumed): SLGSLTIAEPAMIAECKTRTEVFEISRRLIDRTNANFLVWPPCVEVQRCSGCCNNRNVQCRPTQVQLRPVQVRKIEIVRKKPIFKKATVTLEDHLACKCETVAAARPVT
T2 sequence (P31240 82-190 limits assumed): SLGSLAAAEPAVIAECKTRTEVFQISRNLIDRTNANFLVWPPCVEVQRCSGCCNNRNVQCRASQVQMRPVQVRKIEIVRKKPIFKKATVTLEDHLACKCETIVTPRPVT

B1: DARPin #51 (designed binder)
chain: MRGSHHHHHHGSDLGKKLLEAARAGQDDEVRILMANGADVNAKDLNGQTPLHLAADIGHLEIVEVLLKAGADVNAKDYAGSTPLRLAAWAGHLEIVEVLLKAGADVNAKDYFGYTPLHLAAYFGHLEIVEVLLKAGADVNAQDKFGKTAFDISIDNGNEDLAEILQKLN
For the molecule B1, the Kd (usually the equilibrium constant for the complex coming apart) in experiment [1] is 0.121 nM. Also, the half-maximal inhibitory concentration (IC50) (commonly the concentration that inhibits the measured activity by half) in experiment [2] was found to be 0.008 nM.

B2: DARPin #55 (designed binder)
chain: MRGSHHHHHHGSDLGKKLLEAARAGQDDEVRILLKAGADVNAKDLNGQTPLHLAADIGHLEIVEVLLKAGADVNAKDYAGSTPLRLAAWAGHLEIVEVLLKAGADVNAKDYFGYTPLHLAAYFGHLEIVEVLLKAGADVNAQDKFGKTAFDISIDNGNEDLAEILQKLN
On to B2, for which the Kd in experiment [1] was 0.0555 nM. In addition, the IC50 in experiment [2] is 0.014 nM.

B3: DARPin #56 (designed binder)
chain: MRGSHHHHHHGSDLDKKLLEAARAGQDDEVRILLKAGADVNAKDLNGQTPLHLAADIGHLEIVEVLLKAGADVNAKDYAGSTPLRLAAWAGHLEIVEVLLKAGADVNAKDYFGYTPLHLAAYFGHLEIVEVLLKAGADVNAQDKFGKTPADIAADNGHEDIAEVLQKLN
Turning to B3, the Kd in experiment [1] is 0.15 nM. Further, the half-maximal inhibitory concentration (IC50) in experiment [2] was 0.17 nM.

B4: DARPin #53 (designed binder)
chain: MRGSHHHHHHGSDLDKKLLEAARAGQDDEVRILMANGADVNAKDLNGQTPLHLAADIGHLEIVEVLLKAGADVNAKDYAGSTPLRLAAWAGHLEIVEVLLKAGADVNAKDYFGYTPLHLAAYFGHLEIVEVLLKAGADVNAQDKFGKTPADIAADNGHEDIAEVLQKLN
Regarding B4, the dissociation constant Kd in experiment [1] stood at 0.128 nM. Further, in experiment [2], the half-inhibitory concentration (IC50) is 0.036 nM.

B5: DARPin #54 (designed binder)
chain: MRGSHHHHHHGSDLGKKLLEAARAGQDDEVRILMANGADVNAKDLNGQTPLHLAADIGHLEIVEVLLKAGADVNAKDYAGSTPLRLAAWAGHLEIVEVLLKAGADVNAKDYFGYTPLHLAAYFGHLEIVEVLLKAGADVNAQDKSGKTPADLAADAGHEDIAEVLQKLN
Turning to B5, in experiment [1], the dissociation constant (Kd) stood at 0.245 nM. Besides, in experiment [2], the IC50 was determined as 0.21 nM.

B6: DARPin #57 (designed binder)
chain: MRGSHHHHHHGSDLGKKLLEAARAGQDDEVRILLKAGADVNAKDLNGQTPLHLAADIGHLEIVEVLLKAGADVNAKDYAGSTPLRLAAWAGHLEIVEVLLKAGADVNAKDYFGYTPLHLAAYFGHLEIVEVLLKAGADVNAQDKSGKTPADLAADAGHEDIAEVLQKLN
Regarding B6, in experiment [1], the Kd was 0.123 nM. Moreover, the IC50 in experiment [2] is 0.204 nM.

B7: DARPin #58 (designed binder)
chain: MRGSHHHHHHGSDLGKKLLEAARAGQDDEVRELLKAGADVNAKDLNGQTPLHLAADIGHLEIVEVLLKAGADVNAKDYAGSTPLRLAAWAGHLEIVEVLLKAGADVNAKDYFGYTPLHLAAYFGHLEIVEVLLKAGADVNAQDKSGKTPADLAADAGHEDIAEVLQKLN
Consider B7, for which the equilibrium dissociation constant (Kd) in experiment [1] was determined as 0.257 nM. The concentration for half-maximal inhibition (IC50) in experiment [2] was determined as 0.47 nM.

B8: DARPin #35 (designed binder)
chain: MRGSHHHHHHGSDLGQKLLYAAEHGQDDEVRILLAAGADVNAKDQTGSTPLHYAAVWGHMEIVEVLLKAGADVNAQDLWGATPADLAAFLGHEDIAVVLQKLN
Take B8: the Kd in experiment [3] is 0.0981 nM; in experiment [1], 0.0956 nM.

B9: DARPin #52 (designed binder)
chain: MRGSHHHHHHGSDLGKKLLEAARAGQDDEVRILMANGADVNAQDLNGQTPLHLAADIGHLEIVEVLLKHGADVNAQDYAGSTPLRLAAWAGHLEIVEVLLKNGADVNANDYFGYTPLHLAAYFGHLEIVDVLLKHGADVNAQDKFGKTPADIAADNGHEDIAEVLQKLN
Take B9: in experiment [2], the concentration for half-maximal inhibition (IC50) came out at 0.068 nM.

B10: DARPin #47 (designed binder)
chain: MRGSHHHHHHGSDLGKKLLEAARAGQDDEVRILLKAGADVNAKDKSGHTPLHLAAYSGHLEIVEVLLKAGADVNAKDQEGTTPLHFAASVGHLEIVEVLLKAGADVNAQDHYGATPADLAALIGHEDIAEVLQKLN
On to B10, for which the Kd in experiment [1] was 0.0937 nM. Moreover, the IC50 in experiment [2] came out at 0.14 nM.

B11: DARPin #45 (designed binder)
chain: MRGSHHHHHHGSDLGKKLLEAARAGQDDEVRELLKAGADVNAKDKSGHTPLHLAAYSGHLEIVEVLLKAGADVNAKDQEGTTPLHFAASVGHLEIVEVLLKAGADVNAQDHYGATPADLAALIGHEDIAEVLQKLN
For B11, the Kd in experiment [1] stood at 0.108 nM. The IC50 in experiment [2] was found to be 0.16 nM.

B12: DARPin #46 (designed binder)
chain: MRGSHHHHHHGSDLGKKLLEAARAGQDDEVRILMANGADVNAKDKSGHTPLHLAAYSGHLEIVEVLLKAGADVNAKDQEGTTPLHFAASVGHLEIVEVLLKAGADVNAQDHYGATPADLAALIGHEDIAEVLQKLN
Regarding B12, the equilibrium dissociation constant (Kd) in experiment [1] worked out at 0.112 nM. Also, the concentration for half-maximal inhibition (IC50) in experiment [2] is 0.15 nM.

B13: DARPin #29 (designed binder)
chain: MRGSHHHHHHGSDLGKKLLEAARAGQDDEVRILLKAGADVNAKDEEGTTPLHYAAVWGHLEIVEVLLKAGADVNAQDIYGATPADLAALVGHEDIAEVLQKLN
Regarding B13, in experiment [1], the dissociation constant (Kd) stood at 0.105 nM. For the same molecule, in experiment [2], the IC50 worked out at 0.015 nM.

B14: DARPin #32 (designed binder)
chain: MRGSHHHHHHGSDLGHKLLQAAKHGQDDEVRILLAAGADVNAKDDEGTTPLHYAAVWGHLEIVEVLLKAGADVNAQDAYGATPADLAAFLGHEDIAEVLQKLN
On to B14, for which the equilibrium dissociation constant (Kd) in experiment [3] turned out to be 0.0834 nM; in experiment [1], 0.0638 nM.

B15: DARPin #40 (designed binder)
chain: MRGSHHHHHHGSDLGYKLLSAAQYGQDDEVRILLAAGADVNAKDYSGTTPLHYAATWGHLEIVEVLLKAGADVNAQDIYGATPADLAALIGHEDIAEVLQKLN
On to B15, for which the Kd worked out at 0.0608 nM in experiment [3] and 0.0344 nM in experiment [1].

B16: DARPin #36 (designed binder)
chain: MRGSHHHHHHGSDLGSKLLTAALDGQDDEVRILLAAGADVNAKDEEGTTPLHYAAVVGHLEIVEVLLKAGADVNAQDIWGATPADLAALVGHEDIAEVLQKLN
As for B16, the values for the Kd in experiment [3] and in experiment [1] were 0.053 nM and 0.0242 nM, respectively.

B17: DARPin #31 (designed binder)
chain: MRGSHHHHHHGSDLGKKLLEAARAGQDDEVRELLKAGADVNAKDEEGTTPLHYAAVFGHLEIVEVLLKAGADVNAQDIYGATPADLAALVGHEDIAEVLQKLN
On to B17, for which the Kd in experiment [1] amounted to 0.109 nM. In experiment [2], the IC50 stood at 0.48 nM.

B18: DARPin #26 (designed binder)
chain: MRGSHHHHHHGSDLGKKLLEAARAGQDDEVRILLAAGADVNAKDEEGTTPLHYAAVWGHLEIVEVLLKAGADVNAQDIYGATPADLAALVGHEDIAEILQKLN
Take B18: the dissociation constant (Kd) was 0.0174 nM in experiment [3] and 0.0177 nM in experiment [1].

B19: DARPin #25 (designed binder)
chain: MRGSHHHHHHGSDLGKKLLEAARAGQDDEVRILMANGADVNAKDEEGTTPLHYAAVWGHLEIVEVLLKAGADVNAQDIYGATPADLAALVGHEDIAEILQKLN
As for B19, the values for the dissociation constant Kd in experiment [3] and in experiment [1] were 0.0128 nM and 0.0147 nM, respectively.

B20: DARPin #33 (designed binder)
chain: MRGSHHHHHHGSDLGHKLLQAAEQGQDDEVRILLAAGADVNAKDEYGTTPLHFAAVWGHLEIVEVLLKAGADVNAQDVFGATPADLAAYVGHEDIAEVLQKLN
In the case of B20, the figures for the Kd in experiment [3] and in experiment [1] were 0.0904 nM and 0.0806 nM, respectively.

B21: DARPin #42 (designed binder)
chain: MRGSHHHHHHGSDLGYKLLFAAYVGQDDEVRILLAAGADVNAKDRHGRTPLHLAAWEGHLEIVEVLLKAGADVNAKDDEGTTPLHLLAAWEGHLEIVEVLLKAGADVNAQDVYGATPADLAAYIGHEDIAEVLQKLN
Turning to B21, the Kd is 0.0974 nM in experiment [3] and 0.0805 nM in experiment [1].
